# Test results: the RNAGym collection of RNA variant scans (doi:10.7554/elife.80360)
# B1: Twister Ribozyme (parent)
# chain: AACACUGCCAAUGCCGGUCCCAAGCCCGGAUAAAAGUGGAGGGGGCGG
# Variants of: B1
# Experiment: self-cleavage, relative activity (ratio to wild type); higher = more cleavage; co-transcriptional
row,Variant,self-cleavage
1,C3U C14A,0.351
2,C3U C14U,0.376
3,C3U C14G,0.0572
4,C3U G47C,0.233
5,A2U G28C,0.533
6,A2U G28A,0.409
7,A2U G44C,0.439
8,A2U G44A,0.615
9,A2U G44U,0.429
10,A4C A11U,0.16
11,A4C A11C,0.0104
12,C3A C19A,0.0415
13,C3A C19U,0.153
14,A2U A35U,0.574
15,A2U A35G,0.207
16,A2U C14G,0.0946
17,A2U C14U,0.591
18,C3A G16A,0.109
19,C3A G16C,0.0608
20,C3U A32G,0.369
21,C3U A32U,0.402
22,C3U A32C,0.532
23,C3U C21U,0.0611
24,C3A G29A,0.232

row,Variant,self-cleavage
1,C3A G29U,0.231
2,A4C A23U,0.0688
3,A4C A23C,0.0177
4,C3A U31G,0.121
5,C3A U31C,0.224
6,C3A U31A,0.163
7,C3A G47C,0.145
8,A2G G42C,0.157
9,A2G G42U,0.11
10,A4C C27U,0.112
11,A4C C27A,0.0944
12,C3A G43U,0.0615
13,C3A G43C,0.0669
14,A2U A23U,0.106
15,A2U A23C,0.107
16,C3U G13A,0.402
17,A4C A30C,0.0841
18,C3U G44A,0.382
19,C3U G44U,0.436
20,C3A C25U,0.16
21,C3G C27U,0.327
22,C3G C27G,0.0859
23,A4C C14U,0.257
24,A4C C14A,0.33

row,Variant,self-cleavage
1,C3U A33C,0.476
2,C3U A33U,0.471
3,C3A G45A,0.233
4,C3A G44A,0.221
5,C3A A35G,0.222
6,A2U G36A,0.158
7,A2U G36U,0.113
8,A2U C46A,0.513
9,A2U C46U,0.723
10,A2U U31C,0.652
11,C3U A40C,0.0947
12,A2G U6G,0.161
13,A2G U6C,0.103
14,C3G G48U,0.549
15,C3G G48C,0.65
16,C3G G48A,0.405
17,C3G A33C,0.357
18,C3G A33G,0.483
19,C3G C15G,0.133
20,C3G C15U,0.389
21,C3G C15A,0.161
22,A2G G41C,0.141
23,C3A G48A,0.277
24,C3A G48U,0.282

row,Variant,self-cleavage
1,A2U U18C,0.147
2,C3U C46U,0.503
3,C3U C46G,0.526
4,C3U C20G,0.0703
5,C3U C20A,0.07
6,A2U C26G,0.128
7,A2U C26U,0.069
8,C3A C27G,0.0917
9,A2U G45C,0.191
10,A2U G45A,0.514
11,A2U G41A,0.111
12,A2U G41C,0.175
13,C3A C9A,0.155
14,C3A C9G,0.217
15,C3A A23U,0.133
16,C3A A23G,0.0731
17,C3G U12G,0.4
18,C3G U12C,0.447
19,C3G U12A,0.658
20,C3U G39U,0.066
21,C3U C9G,0.12
22,C3U C9A,0.147
23,C3G C9U,0.191
24,A4C G7U,0.0643

row,Variant,self-cleavage
1,A4C G7A,0.0506
2,C3G A35C,0.397
3,C3U A30G,0.422
4,C3U A30C,0.335
5,C3G G29C,0.236
6,C3G G29U,0.394
7,C3G C20G,0.0675
8,C3G C20U,0.295
9,A2G G48A,0.217
10,A2G G39A,0.143
11,A2U C20A,0.08
12,A2U C20U,0.3
13,A2U A22U,0.11
14,A2U A34U,0.189
15,A2U A34C,0.15
16,A2U A30G,0.772
17,A2U A30C,0.182
18,A4C C8A,0.119
19,A4C C8U,0.108
20,A2G G38U,0.125
21,A2U G39A,0.12
22,C3A G17A,0.0964
23,C3U G7A,0.0905
24,C3U G7C,0.0424

row,Variant,self-cleavage
1,C3A G28C,0.179
2,C3U U31C,0.391
3,C3U U31G,0.445
4,C3U G48U,0.562
5,C3U A34G,0.153
6,C3U A34U,0.314
7,C3G G47U,0.361
8,C3G G47A,0.275
9,A4C A22G,0.0686
10,C3G G16U,0.608
11,C3G G16C,0.123
12,C3G G16A,0.271
13,C3A G39C,0.0623
14,C3U G24A,0.0721
15,C3G G44U,0.425
16,C3G G44C,0.345
17,C3U A4G,0.183
18,C3U G42A,0.0772
19,C3U G42U,0.0877
20,C3A G36U,0.0633
21,C3A G36C,0.0352
22,C3A G36A,0.0998
23,A2U U37G,0.214
24,A2U U37C,0.114

row,Variant,self-cleavage
1,C3A C8U,0.122
2,C3A C8A,0.116
3,C3A C8G,0.0742
4,A2G G44U,0.215
5,A2G G44C,0.212
6,A2G G44A,0.316
7,A2U G16C,0.13
8,A2U G16U,0.309
9,C3A A10U,0.0843
10,C3A A10G,0.322
11,C3U A23C,0.12
12,C3U G17U,0.0762
13,C3U G17C,0.0683
14,C3U G38U,0.409
15,C3G C19U,0.265
16,C3G C19G,0.107
17,C3U A22G,0.0518
18,C3U A22C,0.549
19,C3U A22U,0.255
20,A4C C20A,0.0653
21,A4C C20G,0.0372
22,A4C G17C,0.0696
23,C3G G7U,0.057
24,A2U C19G,0.0882

row,Variant,self-cleavage
1,A4C C25A,0.0458
2,A4C C25G,0.0395
3,A4C A32C,0.101
4,C3G A34G,0.235
5,C3G A34U,0.203
6,C3G A34C,0.0918
7,C3A C20U,0.403
8,A2U A4C,0.0829
9,C3A C21U,0.0858
10,C3A C21G,0.0514
11,A4C G36A,0.103
12,A4C G36C,0.0766
13,A2U A40C,0.155
14,A2U A40U,0.154
15,A2U U12C,0.732
16,A2U A10G,0.674
17,A2G U12C,0.316
18,C3A G38U,0.191
19,C3A G38A,0.268
20,A4C C46U,0.163
21,A2U G43C,0.137
22,A2U G43U,0.139
23,C3G A23G,0.106
24,C3G A23C,0.137

row,Variant,self-cleavage
1,C3G A23U,0.107
2,A2U C9G,0.119
3,C3G A22U,0.384
4,C3U G36A,0.115
5,A2G U18C,0.102
6,A4C C26A,0.0425
7,A2U C15U,0.531
8,C3G A30G,0.239
9,C3G A30U,0.427
10,C3U C15G,0.125
11,C3U C15U,0.335
12,C3A A33U,0.203
13,C3A A33C,0.147
14,A4C G16A,0.0955
15,C3G C25G,0.109
16,C3G C25U,0.317
17,C3G A40G,0.111
18,C3A A22U,0.127
19,C3G C8U,0.389
20,C3G C8G,0.153
21,A2U G13C,0.0514
22,A2U G13A,0.153
23,A2U G13U,0.103
24,A2G G47C,0.212

row,Variant,self-cleavage
1,C3G C26U,0.137
2,C3G C26A,0.121
3,C3A U37C,0.193
4,C3A U37A,0.201
5,A4C G28C,0.0895
6,A4C G28U,0.104
7,C3U C25A,0.0634
8,C3U C25G,0.0982
9,A2U G24U,0.0983
10,C3A G13C,0.0651
11,C3G G36A,0.124
12,C3G G36U,0.144
13,C3A C26G,0.0639
14,C3A C26A,0.139
15,C3U A10C,0.61
16,C3U A10U,0.584
17,C3U A10G,0.474
18,A2U C8A,0.078
19,C3A U6A,0.0998
20,A4C C15G,0.0431
21,A4C G29C,0.0879
22,A4C G29U,0.145
23,A4C G29A,0.168
24,C3A G7A,0.0709

row,Variant,self-cleavage
1,C3A G7U,0.0571
2,C3A C14U,0.176
3,C3A C14A,0.15
4,A4C A35G,0.451
5,C3U G41A,0.117
6,C3U G41C,0.099
7,A2G G45A,0.338
8,A2G G45U,0.159
9,C3G G24C,0.0852
10,C3G U18C,0.147
11,A2G G36U,0.0889
12,C3U G29C,0.277
13,C3U G29U,0.464
14,A2U A11G,0.586
15,C3G A11G,0.503
16,C3G A11C,0.295
17,A4C C9U,0.0772
18,A4C C9G,0.107
19,C3U C19G,0.106
20,A2U U6C,0.0754
21,A4C C5G,0.0446
22,A4C C5U,0.701
23,A2U G47U,0.23
24,A2U G47C,0.174

row,Variant,self-cleavage
1,C3U U37G,0.406
2,C3U U37C,0.172
3,C3A A40G,0.0819
4,C3A A40U,0.0819
5,C3G A32G,0.434
6,A4C A10C,0.152
7,A4C A10G,0.334
8,A4C C21A,0.105
9,A4C C21U,0.0583
10,A4C C21G,0.0577
11,C3G G13U,0.0808
12,C3A G41A,0.0897
13,C3A G41U,0.0613
14,A2U G17C,0.0754
15,A2U G17U,0.0826
16,A4C A33C,0.108
17,A4C A33G,0.146
18,A4C A33U,0.152
19,C3U A35G,0.136
20,C3A A30U,0.184
21,C3A A34C,0.0676
22,C3U C26A,0.148
23,A2U A32C,0.581
24,A2U A32G,0.605

row,Variant,self-cleavage
1,C3G C21A,0.0645
2,A4C A34G,0.0947
3,A4C A34U,0.0292
4,A2G U37A,0.142
5,A2G U37G,0.173
6,C3G G42U,0.118
7,C3G G42A,0.111
8,C3G G42C,0.128
9,C3G,0.541
10,C3U,0.48
11,C3A,0.228
12,C3A U12C,0.425
13,C3G A10C,0.28
14,C3G A10U,0.648
15,C3G G45A,0.479
16,C3G G45C,0.207
17,C3A G42C,0.0718
18,C3A G42A,0.0462
19,C3U U6G,0.106
20,C3G U31G,0.44
21,A2U G48U,0.581
22,C3A A4G,0.102
23,C3U C8G,0.0577
24,C3U C8U,0.216

row,Variant,self-cleavage
1,C3U C8A,0.17
2,C3G G28A,0.239
3,C3G G28U,0.253
4,C3G G28C,0.167
5,A4C A40U,0.0853
6,A4C A40C,0.0698
7,A4C A40G,0.0825
8,C3G G17C,0.0532
9,C3G G17U,0.0757
10,C3G G41C,0.0954
11,C3G G41A,0.209
12,A2U A33G,0.503
13,A2U G7U,0.0853
14,A2U G7A,0.0893
15,C3A A11G,0.185
16,C3U G28U,0.325
17,A2U G29C,0.195
18,C3U U18A,0.158
19,C3U U18C,0.215
20,C3U U18G,0.0621
21,C3A G24U,0.0787
22,C3A G24A,0.0635
